Data from the supplement of paper PMC9170038.

System: MS2 coat protein
Test: apparent KD of MS2 coat protein; higher = weaker reporter binding
Conditions: Eterna round: R107
Procedure, shortened: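 Illumina sequencing clusters served as templates for on-chip transcription of the designed RNA switches. SNAP-549-labelled MS2 coat protein was then titrated in twofold steps from 0.7 or 1.5 nM to 3 µM, allowing 0.8–1.5 h per step at first and 10–20 min per step later. The buffer held 100 mM Tris-HCl pH 7.5, 80 mM KCl and 4 mM MgCl2, without or with constant ligand. Apparent KD is the median per design of normalised cluster binding-curve fits.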

[1] = input ligand: theophylline 20 uM
[2] = input ligand: tryptophan 2.4 mM
[3] = input ligand: theophylline 2 mM

Row | Sequence | apparent KD of MS2 coat protein (input ligand: arginine 13.2 mM) [nM] | apparent KD of MS2 coat protein [1] [nM] | apparent KD of MS2 coat protein [2] [nM] | apparent KD of MS2 coat protein (input ligand: none) [nM] | apparent KD of MS2 coat protein [3] [nM]
1 | UGCAUCAUAAUCAUGUUGGUGCUAGGUGAUACCAGCAUCGAAAGAUGCCCUUGGCAGCACCAACAUGAGGAUCACCCAUGUAAUA [(MT)''-(M)'-(T')-(Theo)-(Ms2)_Design1/22_2] | 69.2 | 165 | 27 |  | 
2 | GUAGCUGAGUGUGAUACCAGAAACGACGUCCUUUAUCAUAACAUGAGGAUCACCCAUGUCUUCCCUUGGCAGCACUUUUCGGUCU [theeternabot_exclusion_MS2_Theo_B_24] | 29.6 | 53.6 | 34.7 |  | 
3 | CUUGUGGGCGGAAGGAGCGCGAUUACAUAACAUGAGGAUCACCCAUGUAAGAAAUUAUUCAUGCAGGUAGGUCGCCGUUCGUGGG [Same State Arginine B GF9] | 24.8 | 30.9 | 25.2 | 23.8 | 24.1
4 | GGCCCACAUGAGGAUCACCCAUGUGUGGAUACCAGCCUCAUUUAGGGCCCUUGGCAGCCAGAUAGUAACAAGUCCGAAACACAGA [theeternabot_sameState_MS2_Theo_A_24] | 26.2 | 203 | 144 |  | 
5 | GUCUGAGUCUGAAGGAGCGACAUGAGGAUCACCCAUGUCUCCCGUUAUGGGAGUUCCUUAGGUCAGGUAGGUCGCAGACUCAGAC [#1 Exclusion - Arginine B Attempt #26 (Inspired by Omei)] | 60.9 | 139 | 108 | 145 | 172
6 | UAUUUGGUGCGCGAGCGCUGGAUAAUUGAUACCAGUGAAGAAGAGCGCCCUUGGCAGCGAAUCCUAACAUGAGGAUCACCCAUGU [5.R] | 33.1 | 54.1 | 38.7 |  | 
7 | ACGUCCGGUUUACUCGUGGGCAUGGUCGAUACCAGUAUUUUAAUCUACCCUUGGCAGCGACAUGAGGAUCACCCAUGUGCGAAGA [XTheo A #21] | 21.5 | 30.6 | 22.8 |  | 
8 | AUAACAUGAGGAUCACCCAUGUAAGCAGAUACCAGCUAGGAAACUAGCCCUUGGCAGCUGCAAGGUGAUCCUAGGUAUCUGCAAU [(M1)-(M2)-(T1)-(T2)-(M)'-(T)'_Design6] | 30.4 | 49.3 | 25.9 | 24.7 | 52.2
9 | ACAUGAGGAUCACCCAUGUUUGAUGUUCCUCGAGGACCGGUACGGCCGCCACUCGAACGAGUGGCACGCGAGUGCGCACUCGCGU [aTa] | 14.3 | 19.9 | 13.6 | 11.3 | 15.6
10 | CGUGUGCGUUCUGAUACCAGAGACAUGAGGAUCACCCAUGUCCGAUCGUCCUGCCUCAGACUCCCUUGGCAGCAGGUUUUGUGCU [Exclusion Theophylline B GF4] | 29.5 | 56.7 | 50.2 |  | 
11 | UCAGUGCAAGGAAGGAGCGGGUACAUGAGGAUCACCCAUGUGCAAGUGGUGAGCGUCCGUGCCCAGGUAGGUCGCCUAGCCUGGU [Quisso] | 56 | 180 | 101 | 109 | 149
12 | AAUAAUAGGUGAUCCUGACGAGUGGCAUAACGAGGACCGGUACGGCCGCCACUCGAACAUGAGGAUCACCCAUGUAGCCACUCGA [M'-T'-T-MS2-T'' - Design 5.b] | 32 | 327 |  |  | 685
13 | CGGACAUGAGGAUCACCCAUGUACACUGAAGGAGCGUCGAGAACGACAGGUAGGUCGCAGGUUGAGGAUGGUGAUGCUCAGGUAG [Exclusion Arginine A GF 3] | 37.1 | 64.7 | 14.3 | 39.2 | 15.8
14 | AUAACCCUUGACUAAAACACUAAAUCAGUUCGAGGACCGGUACGGCCGCCACUCGUGUCAAGACAUGAGGAUCACCCAUGUACCU [Isbe] | 32 | 45.4 |  |  | 44.3
15 | GGUGGCUGGAUUGAUACCAGCCACCACCGAUAGACCACAUGAGGAUCACCCAUGUUGGGUGGCCCUUGGCAGCAGUCCAGCUGCC [#1 Same State - Theophylline B Attempt #9 (HarryS)] | 70.5 | 649 | 886 | 388 | 828
16 | UAAUAAAUAAAUCCAAGGUGAAGGUCAGAUACCAGCCAGAUAACUGGCCCUUGGCAGCUGAAUAAACUUGAGGAUCACCCAGGUA [TheoAS 27 #OpenEnded #MS2Late #AlternativeMS2] | 45.4 | 135 | 55.6 | 63.1 | 548
17 | ACGCUGAUUGAUUACAAUCAGCGAAAAGAUACCAGUGGGUAAUCCCACCCUUGGCAGCUUAAACUUGAGGAUCACCCAGGUGGUA [TheoAS 17 #MS2Right #BothOrNeither #AlternativeMS2] | 88.2 | 419 | 630 | 238 | 439
18 | ACAUGAGGAUCACCCAUGUAGCCUAGGGAAGGAGCGGCGUAAGAGCCAGGUAGGUCGCCCGCAUGAGGAUCACCCAUGUCGAGGG [Same State Arginine A GF10] | 30.9 | 40.9 | 29.3 | 38 | 33.1
